Legend:
[1] = system: MDA-MB-231 parental cells (MDA-STn−); experiment: Flow cytometry-based analysis of antibody binding, parental cells; set-up: species or system human
Procedure: Flow cytometry-based analysis is carried out to elucidate the curve-dose response for binding of antibodies to cell surface antigens. For these analyses, three cell lines are employed.
MDA-MB-231 cells are human breast cancer cells. They are grown in Earle's Minimum Essential Medium supplemented with 10% fetal calf serum (FCS), 100 μg/ml penicillin, 100 UI/ml streptomycin and 45 μg/ml gentamycin. MCF-7 cells are also human breast cancer cells and are grown under the same conditions as MDA-MB-231 cells. Stably transfected versions of MDA-MB-231 and MCF-7 cells (clone TAH3.P10 for MDA-MB-231 cells and clone A12.1 for MCF-7 cells) that over express GalNAc α2,6-sialyltransferase (ST6GalNAc 1,) are also cultured under the same conditions with the exception of an added 1 mg/ml of G418 to support cells expressing the transgene. ST6GalNAc 1 is an enzme capable of sialylating GalNAc. […]
For analysis, cells are harvested using StemPro Accutase (Life Technologies, Carlsbad, Calif.) and washed with PBS comprising 5% FBS before pelleting by light centrifugation. Cell numbers and viability are determined by trypan blue dye exclusion analysis and cell concentrations are adjusted to 5×10^6 cells/ml in PBS with 5% FBS. […] Cells are combined with 50 μl solutions of antibody being analyzed or control antibodies and incubated for 1 hour at 4° C. […]

[2] = E3-STn allograft model, pathological evaluation of H&E stained organs; assay type: in vivo, mouse; conditions: 5 treated mice
Procedure: At the end of the study described in Example 22, three mice from the vehicle control group and five mice that received 7G9-1A8 were chosen at random for post-study pathology assessment. Brain, colon, intestine, heart, kidney, liver, lung, mandibular salivary gland, pancreas, spleen, stomach, adrenal gland and thyroid gland organs were collected from each mouse. The organs were fixed in formalin (VWR; Radnor, Pa.) for about 48 hours, transferred to 70% ethanol (Sigma-Aldrich; St.Louis, Mo.), and then processed for standard H&E staining.
The H&E stained tissue slides were examined for pathology review. Liver sections from each animal had multifocal inflammation with or without concomitant hepatocellular necrosis. The histo-pathological changes were minimal to mild in severity. There was no appreciable difference in the morphology of lesions among vehicle control group mice and mice that received 7G9-1A8.

[3] = E3-STn allograft model, average weight of mice; assay type: in vivo, mouse
Procedure: Balb/c mice were used as part of the test system. 50 female mice were inoculated with E3-STn cells to cause STn-expressing tumor formation. Mice were maintained under pathogen-free conditions with irradiated feed and autoclaved water.
The average weight of mice in each treatment group was also determined on days 1, 4, 6, 8, 11, 13, 15, 18, 20, 22, 26, 27, 29, 32, 34, 36, 39 and 41 following the first administration of each test article (see the following Table). The percent gain or loss over initial weight values is listed in parentheses.

E3-STn tumors = experiment: E3-STn allograft model, second round study, tumor volume; assay type: in vivo, mouse; conditions: for Average Tumor Volume: 25 mg/kg i.p. twice weekly
Description: Standard deviation values are listed in parenthesis.

[4] = system: COLO-205 Human Colon Adenocarcinoma Tumor Xenograft; experiment: COLO-205 human colon adenocarcinoma xenograft model, tumor volume; assay type: in vivo, mouse; conditions: 5 mg/kg i.p. once weekly
Description: To evaluate antibody drug conjugates (ADCs) as single agents in an COLO-205 Colon AdenocarcinomaTumor Xonograft model, 40 athymic nude female mice age range 6-8 weeks were randomly separated into four separate groups, one vehicle control and three ADC treatments, then maintained individually with food/water ad libitum (see the following Table).
Animals were inoculated in the subcutaneous right flank with 5×10^6 colon adenocarcinoma tumor cells (COLO-205) in matrigel, mean tumor size was 175-225 mm^3 at study initiation. Animals were given either vehicle or one of the antibody drug conjugates (5 mg/kg) by intraperitoneal injection once weekly. Tumor volume and percent body weight change were determined once weekly until study termination. The study was terminated when the tumor in the vehicle control animal reached a mean tumor weight >1500 mm^3. SE refers to “standard error.”

B1: 8C11: anti-STn mouse monoclonal, IgG2b κ, from mouse #4407; VH SEQ ID NO: 8, VL SEQ ID NO: 9 (antibody, V domains shown)
VH: QVQLKESGPGLVAPSQSLSITCTVSGFSLTSYGVSWVRQPPGKGLEWLGVIWGDGSTNYHSALISRLIISKDNSKSQVFLKLNSLQTDDTATYYCTKGFTYWGQGTLVTVSA
VL: QIVLTQSPAIMSASPGEKVTMTCSASSSVSYMHWYQQKSGTSPKRWIFDTSKLASGVPARFSGSGSGTSYSLTISSMEAEDAATYYCQQWSSNLLTFGAGTKLELK
- binding to MDA parental cells lacking STn [1]: No binding

B2: 7G9: anti-STn mouse monoclonal, IgG2b κ, from mouse #4407; VH SEQ ID NO: 12, VL SEQ ID NO: 9 (antibody, V domains shown)
VH: QVQLKESGPGLVAPSQNLSITCTVSGFSLTSYGVNWVRQPPGKGLEWLGVIWGDGSTNYHSALISRLIISKENSKSQVFLKLNSLQTNDTATYYCTKGFVYWGQGTLVTVSA
VL: QIVLTQSPAIMSASPGEKVTMTCSASSSVSYMHWYQQKSGTSPKRWIFDTSKLASGVPARFSGSGSGTSYSLTISSMEAEDAATYYCQQWSSNLLTFGAGTKLELK
- epicardial inflammation [2]: not observed
- neutrophil aggregates in the muscularis mucosa of the stomach [2]: not observed
- liver histopathology (multifocal inflammation, hepatocellular necrosis) vs vehicle control ([2]; 3 vehicle mice): no significant difference between the groups
- Average Weight ([3]; day 1 of study): 17.1 g
- Average Weight ([3]; day 4 of study): 17.3 g
- percent gain or loss over initial weight ([3]; day 4 of study): (1.7) %
- Average Weight ([3]; day 6 of study): 18.2 g
- percent gain or loss over initial weight ([3]; day 6 of study): (6.9) %
- Average Weight ([3]; day 8 of study): 18.2 g
- percent gain or loss over initial weight ([3]; day 8 of study): (6.5) %
- Average Weight ([3]; day 11 of study): 18.3 g
- percent gain or loss over initial weight ([3]; day 11 of study): (7.3) %
- Average Weight ([3]; day 13 of study): 18.6 g
- percent gain or loss over initial weight ([3]; day 13 of study): (8.9) %
- Average Weight ([3]; day 15 of study): 18.7 g
- percent gain or loss over initial weight ([3]; day 15 of study): (9.9) %
- Average Weight ([3]; day 18 of study): 18.6 g
- percent gain or loss over initial weight ([3]; day 18 of study): (9.0) %
- Average Weight ([3]; day 20 of study): 18.9 g
- percent gain or loss over initial weight ([3]; day 20 of study): (10.8) %
- Average Weight ([3]; day 22 of study): 18.9 g
- percent gain or loss over initial weight ([3]; day 22 of study): (11.1) %
- Average Weight ([3]; day 26 of study): 19.0 g
- percent gain or loss over initial weight ([3]; day 26 of study): (11.7) %
- Average Weight ([3]; day 27 of study): 19.1 g
- percent gain or loss over initial weight ([3]; day 27 of study): (11.9) %
- Average Weight ([3]; day 29 of study): 19.4 g
- percent gain or loss over initial weight ([3]; day 29 of study): (14.0) %
- Average Weight ([3]; day 32 of study): 19.2 g
- percent gain or loss over initial weight ([3]; day 32 of study): (12.6) %
- Average Weight ([3]; day 34 of study): 19.5 g
- percent gain or loss over initial weight ([3]; day 34 of study): (14.2) %
- Average Weight ([3]; day 36 of study): 19.6 g
- percent gain or loss over initial weight ([3]; day 36 of study): (14.8) %
- Average Weight ([3]; day 39 of study): 20.2 g
- percent gain or loss over initial weight ([3]; day 39 of study): (18.7) %
- Average Weight ([3]; day 41 of study): 20.3 g
- percent gain or loss over initial weight ([3]; day 41 of study): (19.2) %
- percent gain in weight as compared to Paclitaxel and vehicle control ([3]; over the course of treatment): higher percent gain in weight
- Average Tumor Volume (E3-STn tumors; day 1 of treatment): 125.9 mm^3
- Average Tumor Volume (E3-STn tumors; day 5 of treatment): 135.2 mm^3
- Average Tumor Volume (E3-STn tumors; day 8 of treatment): 144.5 mm^3
- Average Tumor Volume (E3-STn tumors; day 12 of treatment): 157.2 mm^3
- Average Tumor Volume (E3-STn tumors; day 15 of treatment): 169.2 mm^3
- Average Tumor Volume (E3-STn tumors; day 19 of treatment): 178.0 mm^3
- Average Tumor Volume (E3-STn tumors; day 22 of treatment): 186.4 mm^3
- Average Tumor Volume (E3-STn tumors; day 26 of treatment): 195.9 mm^3
- Average Tumor Volume (E3-STn tumors; day 29 of treatment): 199.4 mm^3
- Average Tumor Volume (E3-STn tumors; day 33 of treatment): 201.5 mm^3
- Average Tumor Volume (E3-STn tumors; day 36 of treatment): 206.5 mm^3
- Average Tumor Volume (E3-STn tumors; day 40 of treatment): 212.9 mm^3
- Average Tumor Volume (E3-STn tumors; day 43 of treatment): 243.7 mm^3
- Average Tumor Volume (E3-STn tumors; day 47 of treatment): 277.5 mm^3
- Average Tumor Volume (E3-STn tumors; day 50 of treatment): 313.4 mm^3
- average tumor volumes as compared to vehicle control (E3-STn tumors; second round study, 25 mg/kg i.p. twice weekly for 7 weeks): greatly reduced

B3: S3F: 3F1 variable domains combined with IgG2a constant domains; heavy chain SEQ ID NO: 63, light chain SEQ ID NO: 64 (antibody)
heavy: QVQLQQSDAELVKPGASVKISCKASGYTFTDHAIHWVKQKPEQGLDWIGYISPGNGDIKYNEKFKDKVTLTADKSSSTACMHLNSLTSEDSAVYFCKRSLLALDYWGQGTTLTVSSAKTTAPSVYPLAPVCGDTTGSSVTLGCLVKGYFPEPVTLTWNSGSLSSGVHTFPAVLQSDLYTLSSSVTVTSSTWPSQSITCNVAHPASSTKVDKKIEPRGPTIKPCPPCKCPAPNLLGGPSVFIFPPKIKDVLMISLSPIVTCVVVDVSEDDPDVQISWFVNNVEVHTAQTQTHREDYNSTLRVVSALPIQHQDWMSGKEFKCKVNNKDLPAPIERTISKPKGSVRAPQVYVLPPPEEEMTKKQVTLTCMVTDFMPEDIYVEWTNNGKTELNYKNTEPVLDSDGSYFMYSKLRVEKKNWVERNSYSCSVVHEGLHNHHTTKSFSRTPGK
light: DIVMTQSHKFMSTSVGDRVSITCKASQDVGTNIAWYQQKPGRSPKVLIYSASTRHTGVPDRFTGSGSGTDFTLTISNVQSEDLTDYFCQQYSSFPLTFGVGTKLELKRADAAPTVSIFPPSSEQLTSGGASVVCFLNNFYPKDINVKWKIDGSERQNGVLNSWTDQDSKDSTYSMSSTLTLTKDEYERHNSYTCEATHKTSTSPIVKSFNRNEC
- tumor volume course after day 8 ([4]; athymic nude mice): continued to show rapid increase in volume
- Tumor Volume ([4]; study day 1): 182.8 mm^3
- Tumor Volume ([4]; study day 5): 315.2 mm^3
- Tumor Volume ([4]; study day 8): 448.8 mm^3
- Tumor Volume ([4]; study day 10): 543.1 mm^3
- Tumor Volume ([4]; study day 15): 655.3 mm^3
- Tumor Volume ([4]; study day 19): 850.6 mm^3
- Tumor Volume ([4]; study day 22): 938.2 mm^3
- Tumor Volume ([4]; study day 25): 1001.4 mm^3

Reference: patent publication US20180280504A1, “GLYCAN-INTERACTING COMPOUNDS AND METHODS OF USE” (SIAMAB THERAPEUTICS, INC., priority 2014, published 2018)
